In patent US8987192B2, “Potent and selective mediators of cholesterol efflux” (The Regents of the University of California, priority 2006, dated 2015):
Entries after “also recorded” stand apart in the source; their conditions may differ. Where a SMILES comes first, the peptide text is derived from it. Where no end group is shown, it is not given here.

Assays:
[1] = tested on: Apolipoprotein E knock-out mice; experiment: Atherosclerosis in Apolipoprotein E knock-out mice on Western diet, pooled series (Example 19); type: in vivo, mouse; details: 30 mg/kg IP, 21 injections, pooled data of three series
Experimental: The polypeptide of SEQ ID NO:4 and its Y26 analog have been evaluated with respect to ability to inhibit atherosclerosis in Apolipoprotein E knock-out mice. The mice were given Western diet for 18 weeks and then randomized to receive saline, free polypeptide or polypeptide-phospholipid complex. […] The degree of atherosclerosis was then determined in whole aorta and aortic root/sinus. Three experimental series were performed. […] The results are equal to or better than previously have been obtained with IV infusions of 40 mg/kg Apolipoprotein A-I Milano/phospholipids complex into Apo E knock-out mice (Shah et al., Circ., 97:780-5, 1998).
As noted above, data from three experimental series were pooled. Pooling of data is justified as only minor changes in the procedures were made (21 injections at 30 mg/kg over 42 and 21 days, respectively), and the diet regimens and sources of mice and polypeptide, respectively, were the same. In the first experiment S26 was substituted for Y26.

[2] = Pharmacokinetics of iodinated peptide in Sprague-Dawley rats; type: in vivo; details: for Half-live: IP, time interval 0-30 hours
Experimental: An iodinated version of polypeptide of SEQ ID NO:4, which was modified to have a Y residue at the C-terminus, was administered intravenously to Sprague-Dawley rats. The kinetics reflected a biphasic elimination, which is typical of peptides. […] This distribution pattern resembles what has been reported for ApoA-I and HDL. […] (See, FIG. 23).
The bioavailability in percent was calculated from the area under the curve IP as divided by area under the curve IV after adjustment for residual activity and the bioavailability was about 40%.

ABCA1 = ABCA1 (Mus musculus, UniProt P41233); experiment: Cholesterol efflux from [3H]cholesterol-labeled ABCA1-expressing J774 mouse macrophages; type: cell-based; set-up: to upregulate cellular ABCA1 protein; endogenous in cells; host or cells: J774 mouse macrophages; details: macrophages with vs without cAMP; listed as S26>Y
Sequence of ABCA1 (P41233 whole entry): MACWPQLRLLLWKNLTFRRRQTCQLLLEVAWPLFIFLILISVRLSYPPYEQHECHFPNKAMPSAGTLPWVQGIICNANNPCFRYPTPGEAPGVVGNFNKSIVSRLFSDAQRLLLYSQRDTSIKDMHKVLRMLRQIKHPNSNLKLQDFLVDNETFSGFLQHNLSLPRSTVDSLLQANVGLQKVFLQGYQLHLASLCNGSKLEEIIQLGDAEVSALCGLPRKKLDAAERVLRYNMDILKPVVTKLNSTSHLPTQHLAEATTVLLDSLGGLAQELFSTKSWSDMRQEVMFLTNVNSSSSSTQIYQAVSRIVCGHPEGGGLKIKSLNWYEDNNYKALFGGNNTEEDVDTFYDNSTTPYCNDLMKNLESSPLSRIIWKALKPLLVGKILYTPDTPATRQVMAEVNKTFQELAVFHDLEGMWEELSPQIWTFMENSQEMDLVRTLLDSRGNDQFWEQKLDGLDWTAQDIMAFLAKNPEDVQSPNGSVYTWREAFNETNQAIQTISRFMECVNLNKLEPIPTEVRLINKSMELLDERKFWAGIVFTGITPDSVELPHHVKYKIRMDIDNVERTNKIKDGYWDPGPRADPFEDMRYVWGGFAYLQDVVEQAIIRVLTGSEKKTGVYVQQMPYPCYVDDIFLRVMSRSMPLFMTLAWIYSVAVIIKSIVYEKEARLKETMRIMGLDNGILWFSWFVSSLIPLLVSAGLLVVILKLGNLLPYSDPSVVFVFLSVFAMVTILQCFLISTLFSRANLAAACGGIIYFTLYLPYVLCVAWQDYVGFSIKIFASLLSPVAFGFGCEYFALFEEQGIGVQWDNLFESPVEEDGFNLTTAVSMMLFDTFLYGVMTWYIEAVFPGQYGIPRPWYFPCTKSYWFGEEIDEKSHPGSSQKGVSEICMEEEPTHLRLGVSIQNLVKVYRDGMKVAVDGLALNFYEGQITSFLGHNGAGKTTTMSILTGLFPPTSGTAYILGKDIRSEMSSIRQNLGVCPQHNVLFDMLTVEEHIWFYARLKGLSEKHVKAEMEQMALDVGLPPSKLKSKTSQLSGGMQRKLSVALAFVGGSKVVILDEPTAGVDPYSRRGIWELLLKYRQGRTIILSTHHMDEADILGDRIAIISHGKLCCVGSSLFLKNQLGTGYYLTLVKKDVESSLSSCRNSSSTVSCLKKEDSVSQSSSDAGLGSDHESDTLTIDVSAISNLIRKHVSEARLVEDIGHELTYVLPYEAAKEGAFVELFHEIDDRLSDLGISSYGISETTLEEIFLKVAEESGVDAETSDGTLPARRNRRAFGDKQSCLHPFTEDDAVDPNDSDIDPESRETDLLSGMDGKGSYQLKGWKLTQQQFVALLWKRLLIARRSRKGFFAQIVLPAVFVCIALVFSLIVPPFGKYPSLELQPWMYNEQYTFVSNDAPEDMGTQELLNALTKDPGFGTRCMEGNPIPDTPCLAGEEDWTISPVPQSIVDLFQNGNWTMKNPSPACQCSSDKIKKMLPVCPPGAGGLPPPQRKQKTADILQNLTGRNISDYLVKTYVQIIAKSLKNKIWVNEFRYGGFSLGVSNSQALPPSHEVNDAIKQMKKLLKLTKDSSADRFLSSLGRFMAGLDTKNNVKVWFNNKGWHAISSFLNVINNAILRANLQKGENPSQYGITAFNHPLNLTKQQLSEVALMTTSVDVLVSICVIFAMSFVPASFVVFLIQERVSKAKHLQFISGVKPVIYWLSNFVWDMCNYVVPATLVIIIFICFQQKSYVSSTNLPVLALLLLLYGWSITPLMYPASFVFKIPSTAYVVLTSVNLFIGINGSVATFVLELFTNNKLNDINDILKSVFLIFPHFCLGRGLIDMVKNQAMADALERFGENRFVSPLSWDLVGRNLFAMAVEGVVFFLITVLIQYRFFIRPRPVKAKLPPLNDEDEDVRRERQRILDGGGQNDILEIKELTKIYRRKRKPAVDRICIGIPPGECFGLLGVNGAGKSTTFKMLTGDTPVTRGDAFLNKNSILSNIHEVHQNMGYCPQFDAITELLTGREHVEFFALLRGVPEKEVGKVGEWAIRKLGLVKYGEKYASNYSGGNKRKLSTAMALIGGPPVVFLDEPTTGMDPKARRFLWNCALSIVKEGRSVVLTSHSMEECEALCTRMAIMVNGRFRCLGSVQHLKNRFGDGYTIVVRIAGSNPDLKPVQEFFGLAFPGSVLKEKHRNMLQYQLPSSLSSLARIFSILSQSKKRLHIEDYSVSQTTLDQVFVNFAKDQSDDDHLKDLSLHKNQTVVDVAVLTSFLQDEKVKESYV
Experimental: In some embodiments, a polypeptide known to mediate cholesterol efflux (e.g., helix 9/10 of Apo A-I) is used to screen for additional mediators of cholesterol efflux in a cell based assay. For example, cell lines in which cholesterol efflux can be enhanced using a cAMP analog that up-regulates ABCA1 protein expression (e.g., J774 macrophages) can conveniently be used to assess the ability of a polypeptide of the present invention to mediate cholesterol efflux. The cells are incubated with labeled cholesterol (e.g., [^3H]cholesterol) under conditions appropriate for cholesterol uptake by the cells. Thus, cAMP or cAMP analogs (e.g., CPT-cAMP) are incubated with the cells for a suitable time before the initiation of cellular cholesterol efflux, i.e., prior to contacting the cells with a test polypeptide. Measurement of labeled cholesterol appearing in the medium is used to determine the cholesterol efflux mediating activity of the test polypeptide.
J774 mouse macrophages labeled with [^3H]cholesterol were treated (20 h) with 22-hydroxycholesterol (10 μM)/cis-retinoic acid (10 μM) to upregulate cellular ABCA1 protein.
Mouse macrophages were labeled with [^3H]cholesterol and treated with a cAMP analog to induce ABCA1 expression. […] Km values were calculated using the Michaelis-Menton equation and GraphPad Prism4 software.
Inverted sequence peptides synthesized with all L-amino acids and all D-amino acids were tested for cholesterol efflux activity using ABCA1 expressing J774 macrophages.
Two peptide analogs were engineered; the first replacing glutamic acid residues (E) at position 8 and 15 with aspartic acid residues (D), i.e., E8, 15>D polypeptides, and the second, replacing E1, 7, 8, 15, 18, 19 with D, i.e., all D (Asp) polypeptide. Cholesterol efflux activity was determined using J774 macrophages treated with and without a cAMP analog to modulate ABCA1 expression.
The impact of the A12>L substitution was also tested for activity, which also expanded non-polar surface area.
1-palmitoyl-2-oleoyl-phosphatidylcholine (POPC) was used to evaluate the cholesterol efflux properties of a formulated polypeptide of the present invention. […] To test cholesterol efflux activity, J774 mouse macrophages were labeled with [^3H]cholesterol and treated with and without cAMP to modulate ABCA1 expression.

[3] = Pharmacokinetic analysis with monophasic decay model; type: in vivo
Source text: Position 11, i.e., A, in the polypeptide of SEQ ID NO:4 can be substituted with other non-polar (hydrophobic) amino acids as well as other polar non-charged amino acids.

Compound	antiatherosclerotic effect (whole aorta and aortic root/sinus) [1]	Half-live ([2]; listed as SEQ ID NO: 4/Y26 peptide) [h]	Half-live ([2]; modified to include a tyrosine at the C-terminus)	Half-live ([2]; which was modified to have a Y residue at the C-terminus)	distribution volume relative to plasma volume ([2]; IV)	Correlation ([2]; IV, 0-2.5 hours)	Half-live, first phase ([2]; IV, 0-2.5 hours) [h]	Clearance ([2]; IV, 2.5-24 hours) [mL/h/kg]	Half-live, terminal (second phase) ([2]; IV, 2.5-24 hours) [h]	Volume of distribution ([2]; IV, 2.5-24 hours) [L/kg]	Half-live, terminal (second phase) ([2]; IV, 2.5-24 hours, modified to include a tyrosine at the C-terminus)	Half-live, terminal (second phase) ([2]; IV, 2.5-24 hours, which was modified to have a Y residue at the C-terminus)	ABCA1-dependent cholesterol efflux (ABCA1)	pharmacokinetic properties compared to parent polypeptide [3]
SEQ ID NO: 4/Y26: SEQ ID NO:4 with serine 26 replaced by tyrosine; iodinated version used for pharmacokinetics (EVRSKLEEWFAAFREFAEEFLARLKY; also: iodinated version used for pharmacokinetics)	significant antiatherosclerotic effects	11.2	about 11 hours	about 11.2 hours	approximately twice as large as the plasma volume	−0.95	4.5	1.2	33.7	0.0557	about 34 hours	approximately 34 hours	stimulated ABCA1 cholesterol efflux like the parent 26-mer polypeptide; also recorded: retained ABCA1-dependent cholesterol efflux activity	
CC(C)C[C@H](NC(=O)[C@H](Cc1ccccc1)NC(=O)[C@H](CCC(=O)O)NC(=O)[C@H](CCC(=O)O)NC(=O)[C@H](C)NC(=O)[C@H](Cc1ccccc1)NC(=O)[C@H](CCC(=O)O)NC(=O)[C@H](CCCNC(=N)N)NC(=O)[C@H](Cc1ccccc1)NC(=O)[C@H](C)NC(=O)[C@H](Cc1ccc(O)cc1)NC(=O)[C@H](Cc1ccccc1)NC(=O)[C@H](Cc1c[nH]c2ccccc12)NC(=O)[C@H](CCC(=O)O)NC(=O)[C@H](CCC(=O)O)NC(=O)[C@H](CC(C)C)NC(=O)[C@H](CCCCN)NC(=O)[C@H](CO)NC(=O)[C@H](CCCNC(=N)N)NC(=O)[C@@H](NC(=O)[C@@H](N)CCC(=O)O)C(C)C)C(=O)N[C@@H](C)C(=O)N[C@@H](CCCNC(=N)N)C(=O)N[C@@H](CC(C)C)C(=O)N[C@@H](CCCCN)C(=O)N[C@@H](CO)C(=O)O [A11>Y11] (H-EVRSKLEEWFYAFREFAEEFLARLKS-OH)														identical pharmacokinetic properties
